Assay results from patent publication US20100105141, “Sulfonylurea-Responsive Repressor Proteins” (Pioneer Hi-Bred International, Inc., published 2010).

Molecular target: L7-1F08-A11 (L7-A11, EsR2) (synthetic, UniProt P04483 SEQ:1-207, L55M,H64A,F67Y,F86M,H100C,R104G,P105F,K108Q,L113A,Q116S,L134M,S135Q,H139I,F140Y, …)
Assay: EMSA; 5 pmol DNA, 20 mM Tris-HCl pH 8.0, 10 mM EDTA, RT 0.5 h; released by ethametsulfuron dose-dependently, less by chlorsulfuron; no change with atc
Conditions: chain copies: 2
Description: Five pmol of TetO or control DNA was mixed with the indicated amounts (FIG. 7) of ethametsulfuron repressor protein (L7A11) or BSA control with or without inducer in complex buffer containing 20 mM Tris-HCl (pH8.0) and 10 mM EDTA. The mixture was incubated at room temperature for 0.5 hour before loading onto the gel. The reaction was electrophoresed on a Novex 6% DNA retardation gel (Invitrogen, EC6365BOX) at room temperature, 38 V in 0.5×TBE buffer for about 2 hours. DNA was detected by ethidium bromide staining.

B1: tetO 48 bp (dsDNA)
DNA 1: CCTAATTTTTGTTGACACTCTATCATTGATAGAGTTATTTTACCACTC
DNA 2: GAGTGGTAAAATAACTCTATCAATGATAGAGTGTCAACAAAAATTAGG
B1: binds.
